Measured values taken from patent US6407214 (CELLTECH THERAPEUTICS, dated 2002).
Several values for one entry are separate records, joined by “and”; a condition that tells them apart may be missing. Equal entries are not always repeated.

Columns and labels:
[1] = biological target: T1, Lectin/EGF fragment from E-selectin (UniProt P16581 22-178, limits assumed); experiment: BIAcore SPR, antibody immobilised, lectin/EGF fragment in fluid phase; duplicate
T1 construct: domain: Lectin/EGF fragment; Soluble fragment; also called lectin/EGF fragment of E-selectin
T1 sequence (looked up): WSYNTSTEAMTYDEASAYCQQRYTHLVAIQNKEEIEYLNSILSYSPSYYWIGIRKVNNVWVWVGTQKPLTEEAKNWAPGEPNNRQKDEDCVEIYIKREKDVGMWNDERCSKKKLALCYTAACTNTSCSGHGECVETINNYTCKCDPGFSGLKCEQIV
Protocol: (§1) The affinity of both mouse and CDR-grafted ENA-2 for E-selectin were measured using a BIAcore TH biosensor (Pharmacia). This instrument combines miniaturised fluid delivery with an optical detection system based on surface plasmon resonance, to monitor protein interactions in real time (Chaiken et al, (1991) Anal. Biochem 201 197–210). The antibodies were immobilised at similar densities onto the sensor surface and the lectin/EGF fragment of E-selectin used as antigen in the fluid phase.
(§2) Assays of both antibodies were run at the same time using the same dilutions of antigen. The KD measurements are given below. KD Measurements

[2] = biological target: T1, Lectin/EGF fragment from E-selectin; experiment: BIAcore SPR, antibody immobilised, lectin/EGF fragment in fluid phase; average
Protocol: as §1, §2

B1: mouse ENA-2 (antibody, V domains shown)
VH: QVQLQQSGTELVRPGASVTLSCKASGYTFTDHEMHWVKQTPVLGLEWIGTIDPETGGTAYNQKFKGKATLTADKSSTTAYMDLRGLTSEDSAVFYCTVLRMDYWGQGTSLTVSA
VL: DIVMTQSPSSLTVTAGEKVTMRCKSSQSLLNSGNQQNYLTWYQQKPGQPPKLLIYWASTRESGVPDRFTGSGSGTDFTLTISSVQTEDLAVYYCQNDYDYPLTFGAGTKLEIKR
notes: Mouse IgG1/kappa whole antibody purified from hybridoma supernatant; The entries may include leader residues; also called mENA-2; murine ENA-2
[1]
  Kd: 5.38 nM and 5.48 nM
[2]
  Kd: 5.43 nM

B2: CDR-grafted ENA-2 (hENA-2 wt) (antibody, V domains shown)
VH: QVQLVQSGAEVKKPGSSVKVSCKASGYTFTDHEMHWVRQAPGQGLEWIGTIDPETGGTAYNQKFKGRATLTADKSTNTAYMDLSSLRSEDTAVYYCTVLRMDYWGQGTLVTVSS
VL: DIQMTQSPSTLSASVGDRVTITCKSSQSLLNSGNQQNYLTWYQQKPGKAPKLLIYWASTRESGVPDRFTGSGSGTDFTLTISSLQPDDFAVYYCQNDYDYPLTFGQGTKVEIKR
notes: CDR-grafted on human Eu frameworks, with a human kappa light chain (pENA204); Both gamma 1 (pENA212) and gamma 4 (pENA206) heavy chain vectors were made; The FcRI comparison uses the gamma 4 wild type; also called hEN2; gamma 4
[1]
  Kd: 7.8 nM and 8.17 nM
[2]
  Kd: 7.98 nM
